From patent US11155602B2, “Polypeptides targeting HIV fusion” (priority 2015, dated 2021)
Numbering of substitutions follows the chain as printed.

B1: 174 (protein)
chain: MGHHHHHHGGSVSDVPRDLEVVAATPTSLLISWEYNVNAYRYYRITYGETGGNSPVQEFTVPSVLSTATISGLKPGVDYTITVYAVTYGIISEPISINYRTEID
modifications: Adnectin
B2: 175 (protein)
chain: B1 chain with N36K, N38H, A39Y, Y40D, I90V, I91Q, E93T
modifications: Adnectin
B3: 176 (protein)
chain: B1 chain with N36K, N38H, A39H, Y40D, I91E, E93S
modifications: Adnectin
B4: 177 (protein)
chain: B1 chain with N36K, N38H, A39P, I90D, I91D, E93A, N98P, E102P, I103G, D104G
modifications: Adnectin
B5: 179 (protein)
chain: B1 chain with N36K, N38H, A39P, I90D, I91D, E93R
modifications: Adnectin
B6: 180 (protein)
chain: B1 chain with N36K, N38H, A39P, I90K, I91D, E93A
modifications: Adnectin
B7: 120 (protein)
chain: MGHHHHHHGGVSDVPRDLEVVAATPTSLLISWEYNVNPYRYYRITYGETGGNSPVQEFTVPSVLSSAQISGLKPGVDYTITVYAVTRGVDSAPISINYRTPGG
modifications: Adnectin
B8: 181 (protein)
chain: B1 chain with N36K, N38H, A39P, I90D, I91H, E93A
modifications: Adnectin
B9: 182 (protein)
chain: B1 chain with N36K, N38H, A39P, I90D, I91Q, E93A
modifications: Adnectin
B10: 183 (protein)
chain: B1 chain with N36K, N38H, A39P, I91D, E93A
modifications: Adnectin
B11: 184 (protein)
chain: B1 chain with N36K, N38H, A39P, I90D, I91V, E93A
modifications: Adnectin
B12: 186 (protein)
chain: B1 chain with N36K, N38H, A39P, I90E, I91D, E93A
modifications: Adnectin
B13: 187 (protein)
chain: B1 chain with N36K, N38H, A39P, T60K, I90D, I91D, E93A
modifications: Adnectin
B14: 188 (protein)
chain: B1 chain with N36K, N38H, A39P, I90D, I91L, E93A
modifications: Adnectin
B15: 189 (protein)
chain: B1 chain with N36K, N38H, A39P, I90K, I91D, E93A
modifications: Adnectin
B16: 190 (protein)
chain: B1 chain with N36K, N38H, A39P, I90A, I91D, E93A
modifications: Adnectin
B17: 121 (protein)
chain: B7 chain with S66T, Q68E, R87Y, A92D
modifications: Adnectin
B18: 191 (protein)
chain: B1 chain with N36K, N38H, A39P, I90T, I91D, E93A
modifications: Adnectin
B19: 192 (protein)
chain: B1 chain with N36K, N38H, A39P, I90T, I91D, E93A
modifications: Adnectin
B20: 193 (protein)
chain: B1 chain with N36K, N38H, A39P, I90K, I91D, E93A
modifications: Adnectin
B21: 194 (protein)
chain: B1 chain with N36K, N38H, A39P, I90D, I91P, E93A
modifications: Adnectin
B22: 195 (protein)
chain: B1 chain with N36K, N38H, A39P, I90D, I91D, E93Q
modifications: Adnectin
B23: 196 (protein)
chain: B1 chain with N36K, N38H, A39P, I90D, I91V, E93A
modifications: Adnectin
B24: 197 (protein)
chain: B1 chain with N36K, N38H, A39P, I90D, I91D, E93G
modifications: Adnectin
B25: 198 (protein)
chain: B1 chain with N36K, N38H, A39P, I90D, I91D, E93A, N98Q
modifications: Adnectin
B26: 199 (protein)
chain: B1 chain with N36K, N38H, A39P, I90D, I91D, E93Q
modifications: Adnectin
B27: 200 (protein)
chain: B1 chain with N36K, N38H, A39P, G48T, I90D, I91D, E93A
modifications: Adnectin
B28: 122 (protein)
chain: B7 chain with E33Q, N35K, N37H, S66T, Q68E
modifications: Adnectin
B29: 201 (protein)
chain: B1 chain with N36K, N38H, A39P, I90D, I91Q, E93A
modifications: Adnectin
B30: 202 (protein)
chain: B1 chain with N36K, N38H, A39P, I90D, I91D, E93K
modifications: Adnectin
B31: 203 (protein)
chain: B1 chain with N36K, N38H, A39P, I90D, I91D, E93G
modifications: Adnectin
B32: 205 (protein)
chain: B1 chain with N36D, N38H, A39P, I90D, I91D, E93A
modifications: Adnectin
B33: 206 (protein)
chain: B1 chain with N36K, N38H, A39P, I90D, I91D, E93K
modifications: Adnectin
B34: 207 (protein)
chain: B1 chain with N36K, N38H, A39P, G48W, I90D, I91D, E93A
modifications: Adnectin
B35: 208 (protein)
chain: B1 chain with N36K, N38H, A39P, I90D, I91D, E93T
modifications: Adnectin
B36: 209 (protein)
chain: B1 chain with N36K, N38H, A39P, I90D, I91D, E93T
modifications: Adnectin
B37: 210 (protein)
chain: B1 chain with N36K, N38H, A39P, I90D, I91D, E93S
modifications: Adnectin
B38: 123 (protein)
chain: MGVSDVPRDLEVVAATPTSLLISWEYKVHPYRYYRITYGETGGNSPVQEFTVPSVLSTATISGLKPGVDYTITVYAVTRGVDSAPISINYRTEIDKPSQHHHHHH
modifications: Adnectin
B39: 211 (protein)
chain: B1 chain with N36K, N38H, A39P, Y88R, I90D, I91D, E93A
modifications: Adnectin
B40: 212 (protein)
chain: B1 chain with N36K, N38H, A39P, Y88H, I90D, I91D, E93A
modifications: Adnectin
B41: 213 (protein)
chain: B1 chain with N36K, N38H, A39P, I90D, I91D, E93W
modifications: Adnectin
B42: 214 (protein)
chain: B1 chain with N36K, N38H, A39P, Y88H, I90D, I91D, E93A
modifications: Adnectin
B43: 215 (protein)
chain: B1 chain with E34K, N36D, N38H, A39P, I90D, I91D, E93A
modifications: Adnectin
B44: 216 (protein)
chain: B1 chain with N36K, N38H, A39P, G72D, I90D, I91D, E93H
modifications: Adnectin
B45: 217 (protein)
chain: B1 chain with N36K, N38H, A39P, Y88R, I90D, I91D, E93A
modifications: Adnectin
B46: 218 (protein)
chain: B1 chain with N36K, N38H, A39P, S71R, I90D, I91D, E93A
modifications: Adnectin
B47: 219 (protein)
chain: B1 chain with E34K, N36K, N38H, A39P, I90D, I91D, E93A
modifications: Adnectin
B48: 220 (protein)
chain: B1 chain with G9C, N36K, N38A, A39H, Y40N, I90D, I91D, E93A
modifications: Adnectin
B49: 124 (protein)
chain: B38 chain with T60E, E93P
modifications: Adnectin
B50: 221 (protein)
chain: B1 chain with N36K, N38Y, A39G, I90D, I91D, E93A
modifications: Adnectin

Test system: NL-Rluc virus
Test: Combinectin potency assay: antiviral EC50, NL-Rluc virus in MT-2 cells, luciferase readout
Format: cell-based, HIV-1
Settings: Anti-N17 Adnectin, Table 3
In short: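 MT-2 cells infected with replication-competent NL-Rluc HIV (nef replaced by Renilla luciferase) at MOI 0.01 for 1 h, then added to threefold-diluted peptides (11 concentrations, triplicate). After 4–5 days, luciferase measured by Dual Luciferase; EC50 relative to no-peptide wells.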

| Molecule | EC50 [nM] |
| --- | --- |
| B1 | 5 |
| B2 | 5 |
| B3 | > 1000 |
| B4 | 252 |
| B5 | > 1000 |
| B6 | > 1000 |
| B7 | 39 |
| B8 | 631 |
| B9 | > 1000 |
| B10 | 20 |
| B11 | 20 |
| B12 | 2830 |
| B13 | 86 |
| B14 | 86 |
| B15 | > 1000 |
| B16 | > 1000 |
| B17 | 57 |
| B18 | > 1000 |
| B19 | 2830 |
| B20 | 252 |
| B21 | > 1000 |
| B22 | > 1000 |
| B23 | 86 |
| B24 | 81 |
| B25 | 2830 |

| Molecule | EC50 [nM] |
| --- | --- |
| B26 | > 1000 |
| B27 | > 1000 |
| B28 | 6 |
| B29 | 20 |
| B30 | > 1000 |
| B31 | 86 |
| B32 | 86 |
| B33 | 237 |
| B34 | > 1000 |
| B35 | > 1000 |
| B36 | 20 |
| B37 | 143 |
| B38 | 28 |
| B39 | 631 |
| B40 | 86 |
| B41 | > 1000 |
| B42 | > 1000 |
| B43 | > 1000 |
| B44 | > 1000 |
| B45 | > 1000 |
| B46 | 62 |
| B47 | > 1000 |
| B48 | 86 |
| B49 | 6 |
| B50 | > 1000 |
